Reference: the RNAGym collection of RNA variant scans (doi:10.1073/pnas.2313332121)

B1: TPR t1 (parent)
chain: GACCAAUCUGCCCUCAGAGCUCGAGAACAUCUUCGGAUGCAGAGGAGGCAGGCUUCGGUGGCGCGAUAGCGCCAACGUCCUCAACCUCCAAUGCAUCCCACCACAUGAUGAUGCCUGAAGAGCCUUGGUUUUUUG

Variants of: B1
Test: polymerase ribozyme fitness, log enrichment relative to wild type (log ratio); higher = more active; in vitro selection for triplet polymerase activity
Procedure, shortened: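 Mutant libraries for each subunit of a heterodimeric triplet polymerase ribozyme were made by PCR and then transcribed. Each library underwent one round of in vitro selection in triplicate: annealing with a biotinylated primer, the partner subunit and triplets, frozen incubation at −7 °C, gel excision of extended constructs, streptavidin-bead capture and RT-PCR. Input and output libraries were Illumina-sequenced, and only genotypes with ≥10 input reads and ≥1 read per output were kept. Fitness is the logarithm, base 2, of genotype enrichment over wild-type enrichment, computed from inverse-variance-weighted replicate averages.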

| Variant | polymerase ribozyme fitness (log ratio) |
| --- | --- |
| A37C G63U | -1.28 |
| C11G C15A A37U C99U A111C U112C | -4.47 |
| G60U U112G A121G U133A U134A | 1.66 |
| C22G C62G C104U G120A | -4.19 |
| C8U C49U | 0.318 |
| G45A U131A | -0.734 |
| U55G C64U A90C U92G C101A | -3.82 |
| C8U C15U G57U C82U U112A A118G | 0.233 |
| G25U A43C U78G A121G | -5.96 |
| C34A G44U G71A C114A | -6.89 |
| G39U G63U G113A | -3.09 |
| C8G G61C C89U C104U | -2.02 |
| C8G G69A | -1.5 |
| C13A U21C C62G | -2.82 |
| C11G U55A U59G U106G G117C | -4.89 |
| C56A A74C C98U | -0.178 |
| C3U A84G G120A | -0.608 |
| C8G G39A C73A C97A | -5.92 |
| U38G G45C G69C C101A A119U | -7.2 |
| C22U U81A C88G | -5.9 |
| A43U G60U C123G U132G | 0.532 |

| Variant | polymerase ribozyme fitness (log ratio) |
| --- | --- |
| U81A A95U C102G A103U G110C U125G | -6.02 |
| C56U C114A | -1.27 |
| C3U G63A C76U G110A C124U | -5.42 |
| C20U G25C C64A C70U C98G A111U | -6.27 |
| G69C U81C | -1.86 |
| C72G U106G G110U A121U U126A G127A | -5.78 |
| C12A C28G G44A | -4.91 |
| G69A U130G | -2.69 |
| A2U C70U | -2.28 |
| C62U C86G G117A A119U | -0.588 |
| C12G G44U U59G | -1.39 |
| A6G C102A C124A U130A | 0.13 |
| A83C G93A G117U | -2.52 |
| U38A A43C A83U C85A | -5.42 |
| C12A C62A U78G | -2.28 |
| A37U U38A G63A | -3.7 |
| C70G G110U | -4.62 |
| U38G C124U | 0.564 |
| A16U G48U C62G C85A | -3.66 |
| C31A C115A | -4.37 |
| G36U C82G U92C | -2.13 |

| Variant | polymerase ribozyme fitness (log ratio) |
| --- | --- |
| C28G U59A C104U G113C | -5 |
| C3U A100C G135C | -2.44 |
| G17U A84U | -2.44 |
| G36A U106A | -0.912 |
| C12G C20U A66U G69A | -5.04 |
| C72U C102A G120U | -2.07 |
| U7G C15G C88G U96A A108G C124A | -5.93 |
| A5U U9A A18U | -2.06 |
| C12U G71C C97U | -0.967 |
| C64U A121G | 1.93 |
| C8G A46G C97U G120U U132A | 1.67 |
| C13A A29G U55A C76G C101G C102A U112C | -8.04 |
| U21C G42A | -1.45 |
| A91G G120U | 0.174 |
| A46C U78C C101G | -2.77 |
| G52U G117U | -3.39 |
| C40A G71U C115G C123G | -5.05 |
| G47U G71U | -2.23 |
| C56A G117A | -2.11 |
| U32G C49A G117A | -7.02 |
| G47C C104U | -1.08 |

| Variant | polymerase ribozyme fitness (log ratio) |
| --- | --- |
| G10A U38C G45A C79U | -1.29 |
| G52C U96C G110U | -1.98 |
| C80U U131G | -0.642 |
| C76U C94U C104U U131C | -0.407 |
| A5U U14G A41U G60C C115U | -4.57 |
| U96A | -0.895 |
| A27C C124U | -1.18 |
| C11G C70A | -0.991 |
| G63C A111U G122A | -5.6 |
| C11G A37U C72G A111C U129A U132C | -0.79 |
| U21A C104U G117A G120U | -3.67 |
| U54A C73A C79A G107C A119G | -6.96 |
| C11G C40U C53U A68G U87A A90U U112A G127C | -6.81 |
| U54G A105G U112A C123G C124A U132C | -2.09 |
| A16G C56A G71U C124A U130A | 0.162 |
| C28G G42A A43C G69U U96A C101U C124U | -4.78 |
| A18C U21A C72G G93C | -4.4 |
| C20G U106A | -4.68 |
| U38G G93C A121U U133G | -1.6 |
| A29G C53A A90C C101U G113C | -2.81 |
